B1: ISH467-N2C0 third clone: JT-ISH-467 sialyltransferase lacking signal peptide region, nucleotides 73 to 1230 of SEQ ID NO: 1, no mutation (protein, listed as Photobacterium phosphoreum)
chain: MFVFCKKIFFLIFISLMILGGCNSDSKHNNSDGNITKNKTIEVYVDRATLPTIQQMTQIINENSNNKKLISWSRYPINDETLLESINGSFFKNRPELIKSLDSMILTNEIKKVIINGNTLWAVDVVNIIKSIEALGKKTEIELNFYDDGSAEYVRLYDFSRLPESEQEYKISLSKDNIQSSINGTQPFDNSIENIYGFSQLYPTTYHMLRADIFETNLPLTSLKRVISNNIKQMKWDYFTTFNSQQKNKFYNFTGFNPEKIKEQYKASPHENFIFIGTNSGTATAEQQIDILTEAKKPDSPIITNSIQGLDLFFKGHPSATYNQQIIDAHNMIEIYNKIPFEALIMTDALPDAVGGMGSSVFFSLPNTVENKFIFYKSDTDIENNALIQVMIELNIVNRNDVKLISDLQ
modifications: CDS (1)..(1230) /gene=“467-23ST” /product=“Beta-galactoside- alpha 2,3-sialyltransferase”
B2: FAJ-N1C0 first clone: JT-FAJ-16 sialyltransferase lacking signal peptide region, nucleotides 67 to 1209 of SEQ ID NO: 30 (protein, listed as Vibrio sp.)
chain: MKNIITKRMLIILSSLFTIIGCNNDNSTTTNNNAIEIYVDRATLPTIQQMTKIVSQKTSNKKLISWSRYPITDKSLLKKINAEFFKEQFELTESLKNIILSENIDNLIIHGNTLWSIDVVDIIKEVNLLGKNIPIELHFYDDGSAEYVRIYEFSKLPESEQKYKTSLSKNNIKFSIDGTDSFKNTIENIYGFSQLYPTTYHMLRADIFDTTLKINPLRELLSNNIKQMKWDYFKDFNYKQKDIFYSLTNFNPKEIQEDFNKNSNKNFIFIGSNSATATAEEQINIISEAKKENSSIITNSISDYDLFFKGHPSATFNEQIINAHDMIEINNKIPFEALIMTGILPDAVGGMGSSVFFSIPKEVKNKFVFYKSGTDIENNSLIQVMLKLNLINRDNIKLISDI
modifications: CDS (1)..(1209) /gene=“FAJ16-23ST” /product=“Beta-galactoside- alpha 2,3-sialyltransferase”
B3: ISH224-N1C0 first clone: JT-ISH-224 sialyltransferase lacking signal peptide region, nucleotides 73 to 1230 of SEQ ID NO: 28 (protein, listed as Photobacterium sp.)
chain: MLVFCKKMFFSVFISLMILGGCNSDSNHNNSDGNITKNKTIEVYVDRATLPTIQQMTQIINENSNNKKLISWSRYPINDEELLESINGSFFKNNSELIKSLDSMILTNDIKKVIINGNTLWAADVVNIIKSIEAFGKKTEIELNFYDDGSAEYVRLYDFSKLPESEQEYKISLSKDNILSSINGTQPFENVVENIYGFSQLYPTTYHMLRADIFETNLPLRSLKGVLSNNIKQMKWDYFKTFNSQQKDKFYNFTGFNPDEIMEQYKASPNKNFIFVGTNSGTATAEQQIDILTEAKNPNSPIITKSIQGFDLFFKGHPSATYNKQIIDAHNMIEIYNKIPFEALIMTDALPDAVGGMGSSVFFSLPNTVENKFIFYKSDTDIENNALIQVMIELNIVNRNDVKLISDLQ
modifications: CDS (1)..(1230) /gene=“224-23ST” /product=“Beta-galactoside-alpha-2,3-sialyltransferase”

Key:
Type in all cases: biochemical
[1] = Sialyltransferase activity in E. coli homogenate (crude enzyme solution), transfer of 14C-NeuAc from CMP-NeuAc to lactose; details: lactose acceptor; for Radioactivity (cpm) Average: average of duplicate; for Sialyltransferase activity in crude enzyme solution (in words): CMP-14C-NeuAc donor
Protocol: Sialyltransferase activity was measured as described in J. Biochem., 120, pp. 104-110 (1996) (which is hereby incorporated by reference in its entirety). More specifically, the enzymatic reaction was accomplished by using CMP-NeuAc (70 nmol, containing 25000 cpm CMP-NeuAc in which NeuAc was labeled with ^14C, 356 cpm/nmol; NeuAc represents N-acetylneuraminic acid) as a glycosyl donor substrate, lactose (1.25 μmol) as a glycosyl acceptor substrate, NaCl added to give a concentration of 0.5 M, and the enzyme-containing reaction solution (30 μl) prepared as described above. The enzymatic reaction was carried out at 25° C. for 10 to 30 minutes. After completion of the reaction, 1.97 ml of 5 mM phosphate buffer (pH 6.8) was added to the reaction solution, which was then applied to a Dowex 1×8 (PO4^3− form, 0.2×2 cm, BIO-RAD) column. The radioactivity was measured for the reaction product, i.e., sialyllactose contained in the eluate (0 to 2 ml) from this column to calculate the enzyme activity.
An induction experiment of protein expression was performed on the two 467-N0C0 clones and the three 467-N2C0 clones obtained in (4) above. A single colony of E. coli TB1 having the expression vector pTrc99A carrying each clone was inoculated into LB medium (5 ml) containing an antibiotic, ampicillin (final concentration 100 μg/mL), and pre-cultured at 30° C. to about A600=0.5, followed by addition of IPTG (isopropyl-β-D(−)-thiogalactopyranoside, Wako Pure Chemical Industries, Ltd. Japan) at a final concentration of 1 mM. After culturing with shaking at 30° C. for an additional 4 hours, the cells in 2 ml culture solution were collected by centrifugation. These cells were suspended in 200 μl of 20 mM BisTris buffer (pH 7.0) containing 0.336% Triton X-100 and 0.5 M sodium chloride, and ultrasonically homogenized under ice cooling. The resulting homogenate was defined as a crude enzyme solution and provided for activity measurement. The reaction was carried out in duplicate, and the reaction composition was the same as shown in Example 1, except that the reaction time was set to 15 hours.
In the same manner as shown in Example 5(5), an induction experiment of protein expression was performed on 2 clones, i.e., the first clone of ISH224-N0C0 and the first clone of ISH224-N1C0 to measure their enzyme activity.
In the same manner as shown in Example 5(5), an induction experiment of protein expression was performed on 3 clones, i.e., the first clone of FAJ-N0C0 as well as the first and second clones of FAJ-N1C0 to measure their enzyme activity.

[2] = Confirmation of α2,3 sialyltransferase activity of E. coli-expressed enzyme with pyridylaminated lactose, HPLC; details: pyridylaminated lactose 2.0 μM, CMP-sialic acid 5.7 μM, pH 6.0, 25° C., 6 hours
Protocol: Using the enzyme obtained in Example 2, the enzymatic reaction was carried out using a pyridylaminated sugar chain as a glycosyl acceptor substrate. The pyridylaminated sugar chain used for analysis was pyridylaminated lactose (Galβ1-4Glc-PA, Takara Bio Inc., Japan). The glycosyl acceptor substrate, CMP-NeuAc and the enzyme were dissolved at 2.0 μM, 5.7 μM and 20 mU/ml, respectively, in 25 μl of 20 mM cacodylate buffer (pH 6.0), and then reacted at 25° C. for 3 hours. After the reaction, the reaction solution was treated at 100° C. for 2 minutes to inactivate the enzyme, followed by HPLC to analyze the reaction product.
The HPLC system used was Shimadzu LC10A (Shimadzu Corporation, Japan) and the analytical column used was Takara PALPAK Type R (Takara Bio Inc., Japan). The column which had been equilibrated with 100 mM acetate-triethylamine (pH 5.0) containing 0.15% N-butanol was injected with the reaction solution diluted with Eluent A (100 mM acetate-triethylamine, pH 5.0). For elution of the pyridylaminated sugar chain, Eluent A (100 mM acetate-triethylamine, pH 5.0) and Eluent B (100 mM acetate-triethylamine containing 0.5% n-butanol, pH 5.0) were used to successively elute the pyridylaminated sugar chain with a linear gradient of 30% to 100% Eluent B (0 to 35 minutes) and then 100% Eluent B (35 to 50 minutes). The analysis was performed under the following conditions: flow rate: 1 ml/min, column temperature: 40° C., detection: fluorescence (Ex: 320 nm, Em: 400 nm).
As in the case of Example 3, pyridylaminated lactose (Galβ1-4Glc-PA, PA-Sugar Chain 026, Takara Bio Inc., Japan) was used as a glycosyl acceptor to carry out the enzymatic reaction. After the reaction, the reaction solution was heated at 95° C. for 5 minutes to inactivate the enzyme, followed by HPLC analysis. It should be noted that the enzymatic reaction was accomplished at 25° C. for 6 hours using pyridylaminated lactose and CMP-sialic acid dissolved at 2.0 μM and 5.7 μM, respectively, in 25 μl of 20 mM cacodylate buffer (pH 6.0) (Reaction 1). On the other hand, a control experiment (Reaction 2) was carried out using a reaction solution free from CMP-sialic acid. Further, to clarify the retention time of standards, the crude enzyme solution was inactivated by thermal treatment (95° C., 5 minutes) and tested in the presence of pyridylaminated lactose and pyridylaminated α2,3-sialyllactose (pyridylaminated 3′-sialyllactose) (Neu5Acα2-3Galβ1-4Glc-PA, PA-Sugar Chain 029, Takara Bio Inc., Japan).

[3] = Optimum temperature for enzyme activity; details: 5° C. to 45° C. at 5° C. intervals, at the optimum pH of each enzyme
Protocol: Purified enzymes were prepared to examine the optimum pH and temperature for β-galactoside-α2,3-sialyltransferase produced by the strain JT-ISH-467 as well as recombinant β-galactoside-α2,3-sialyltransferases produced by the third clone of ISH467-N2C0, the first clone of ISH224-N1C0 and the first clone of FAJ-N1C0.
The enzyme activity was measured at an interval of 5° C. starting from 5° C. up to 45° C. and at pH 5.0 for β-galactoside-α2,3-sialyltransferase produced by the strain JT-ISH-467, in cacodylate buffer (pH 5.5) for the third clone of ISH467-N2C0, in cacodylate buffer (pH 5.0) for the first clone of ISH224-N1C0, and in cacodylate buffer (pH 5.5) for the first clone of FAJ-N1C0.
As a result, as shown, in FIGS. 4-1 and 4-2, the enzyme activity was maximum at 25° C. for β-galactoside-α2,3-sialyltransferase produced by the strain JT-ISH-467, at 25° C. for the third clone of ISH467-N2C0, at 30° C. for the first clone of ISH224-N1C0, and at 20° C. for the first clone of FAJ-N1C0. […] It should be noted that enzyme activity at each temperature was expressed as relative activity, assuming at that the enzyme activity at a temperature where it reached a maximum was set to 100.

[4] = JT-ISH-467 gene clones, 25° C., reaction time 15 hours
[5] = JT-FAJ-16 gene clones, as Example 5(5)
[6] = JT-ISH-224 gene clones, as Example 5(5)

Molecule | Radioactivity (cpm) Round 1 [1, 4] [cpm] | Radioactivity (cpm) Round 2 [1, 4] [cpm] | Radioactivity (cpm) Average [1, 4] [cpm] | Sialyltransferase activity in crude enzyme solution (in words) [1] | α2,3 sialyltransferase activity (formation of pyridylaminated α2,3-sialyllactose) [2] | Temperature at which the enzyme activity was maximum (optimum temperature) [3] [°C] | Radioactivity (cpm) Round 1 [1, 5] [cpm] | Radioactivity (cpm) Round 2 [1, 5] [cpm] | Radioactivity (cpm) Average [1, 5] [cpm] | Radioactivity (cpm) Round 1 [1, 6] [cpm] | Radioactivity (cpm) Round 2 [1, 6] [cpm] | Radioactivity (cpm) Average [1, 6] [cpm]
B1 | 8547 | 8481 | 8514 | sialyltransferase activity was also observed | found to have α2,3 sialyltransferase activity | 25 | – | – | – | – | – | –
B2 | – | – | – | sialyltransferase activity was observed | a peak of pyridylaminated α2,3-sialyllactose (pyridylaminated 3′-sialyllactose) was detected | 20 | 5664 | 6724 | 6194 | – | – | –
B3 | – | – | – | sialyltransferase activity was observed | a peak of pyridylaminated α2,3-sialyllactose (pyridylaminated 3′-sialyllactose) was detected | 30 | – | – | – | 9330 | 9415 | 9672.5
